Measurements reported in publication PMC7790460, “An RNA Repair Operon Regulated by Damaged tRNAs”.
“And” between values parts separate entries of the source, which are not always exact repeats. Identical values can stand only once.

How the values were obtained:
[1] = target: RtcR transcriptional activator (full-length S. Typhimurium RtcR) (S. Typhimurium); assay: SEC; RtcR (48 uM) mixed with 48 uM refolded 5' tRNA-Leu(UAG) halves ending in 2',3'-cyclic phosphate; Superdex 200 Increase 10/300; 20 mM Tris-HCl pH 7.5, 100 mM NaCl, 1 mM MgCl2, 2% glycerol, 0.5% Tween 20, 1 mM ATP; peaks analysed by SDS-PAGE and denaturing gels
RtcR CARF domain = target: T1, RtcR CARF domain (Salmonella enterica serovar Typhimurium …, UniProt Q8ZLH7 1-188); assay: EMSA; 20 mM Tris-HCl pH 7.5, 50 mM NaCl, 1 mM MgCl2, 0.05% Tween 20; 1 mM ATP for RtcR; 30 min at 4 C then 30 min at room temperature; RNA 1 nM; conditions: protein: recombinant; chain copies: 2; label: 5'-32P (EMSA)
T1 sequence: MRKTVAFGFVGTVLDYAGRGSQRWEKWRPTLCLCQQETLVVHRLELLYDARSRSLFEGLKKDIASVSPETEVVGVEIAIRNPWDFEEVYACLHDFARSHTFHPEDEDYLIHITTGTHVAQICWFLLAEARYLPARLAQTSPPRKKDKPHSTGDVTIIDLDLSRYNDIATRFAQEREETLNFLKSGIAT

RtcR (full-length) = target: T2, RtcR (full-length) (Salmonella enterica serovar Typhimurium …, UniProt Q8ZLH7 1-527); assay: EMSA; 1 mM ATP; 20 mM Tris-HCl pH 7.5, 50 mM NaCl, 1 mM MgCl2, 0.05% Tween 20; 1 mM ATP for RtcR; 30 min at 4 C then 30 min at room temperature; RNA 1 nM; conditions: protein: recombinant; chain copies: 2; label: 5'-32P (EMSA)
T2 sequence: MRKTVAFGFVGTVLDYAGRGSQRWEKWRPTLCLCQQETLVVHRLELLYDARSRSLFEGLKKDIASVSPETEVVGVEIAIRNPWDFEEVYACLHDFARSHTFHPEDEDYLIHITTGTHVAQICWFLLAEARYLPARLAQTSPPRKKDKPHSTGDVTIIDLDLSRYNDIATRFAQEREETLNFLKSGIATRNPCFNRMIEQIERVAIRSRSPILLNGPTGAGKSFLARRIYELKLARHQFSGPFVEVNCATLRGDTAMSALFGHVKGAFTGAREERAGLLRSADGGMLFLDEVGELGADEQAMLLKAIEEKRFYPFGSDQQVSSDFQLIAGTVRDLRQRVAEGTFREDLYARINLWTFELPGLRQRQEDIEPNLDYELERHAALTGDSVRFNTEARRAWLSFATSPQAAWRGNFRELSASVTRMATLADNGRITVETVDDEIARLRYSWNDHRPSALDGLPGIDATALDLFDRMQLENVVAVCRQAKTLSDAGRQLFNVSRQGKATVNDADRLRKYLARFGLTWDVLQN

In the case of “RtcR transcriptional activator (full-length S. Typhimurium RtcR) (natural protein)”, the stoichiometry N [1] is reported as 6 and 2.

B1: tRNALeu(UAG) 5' half, after G of anticodon, cyclic phosphate (structured_RNA)
RNA: GCGGGAGUGGCGAAAUUGGUAGACGCACCAGAUUUAG
modifications: 2',3'-cyclic phosphate 3' end
B1 was tested, and the “apparent K (half saturation)” value (RtcR CARF domain) was about 200 nM and the “apparent K (half saturation)” value (RtcR (full-length)) was about 125 nM.

B2: tRNALeu(UAG) 5' half, after G of anticodon, 3'-phosphate (structured_RNA)
RNA: GCGGGAGUGGCGAAAUUGGUAGACGCACCAGAUUUAG
modifications: 3'-phosphate
B2: no binding (RtcR CARF domain).
